Patent US20140259226

Experiments:
6X His-PYR1 V83F = target: T1, 6X His-PYR1 V83F
T1 chain: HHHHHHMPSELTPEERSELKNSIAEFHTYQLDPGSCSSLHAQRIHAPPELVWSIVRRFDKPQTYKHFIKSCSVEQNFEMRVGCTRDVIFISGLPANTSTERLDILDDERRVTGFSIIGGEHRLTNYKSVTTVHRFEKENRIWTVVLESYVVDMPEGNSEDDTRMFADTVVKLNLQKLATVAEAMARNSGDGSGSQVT

6x-His-PYL6, wild type = target: T2, 6x-His-PYL6, wild type
T2 chain: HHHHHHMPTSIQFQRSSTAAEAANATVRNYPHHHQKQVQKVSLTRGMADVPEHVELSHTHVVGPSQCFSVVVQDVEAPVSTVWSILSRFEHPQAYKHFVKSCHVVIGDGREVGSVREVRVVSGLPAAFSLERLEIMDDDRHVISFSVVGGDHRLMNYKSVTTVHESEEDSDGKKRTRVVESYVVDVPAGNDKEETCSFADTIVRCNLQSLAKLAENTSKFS

6X His-PYR1 H60P = target: T3, 6X His-PYR1 H60P
T3 chain: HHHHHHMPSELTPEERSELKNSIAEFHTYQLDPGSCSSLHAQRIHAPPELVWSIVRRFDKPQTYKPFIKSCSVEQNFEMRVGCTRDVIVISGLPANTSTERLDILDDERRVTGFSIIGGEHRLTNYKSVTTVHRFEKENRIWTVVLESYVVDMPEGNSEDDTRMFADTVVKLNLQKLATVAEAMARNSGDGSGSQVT

[1] = target: T4, PYL9^CA4C (A91W, Y160I, F161V), 6xHis fusion
T4 chain: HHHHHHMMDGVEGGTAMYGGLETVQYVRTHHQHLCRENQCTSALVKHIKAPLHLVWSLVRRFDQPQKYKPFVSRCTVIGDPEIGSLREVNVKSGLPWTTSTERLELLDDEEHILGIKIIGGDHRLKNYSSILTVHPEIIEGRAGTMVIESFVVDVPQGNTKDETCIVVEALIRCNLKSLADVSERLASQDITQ

[2] = target: T5, PYR1^CA3 (H60P, V83F, F159V), 6xHis fusion
T5 chain: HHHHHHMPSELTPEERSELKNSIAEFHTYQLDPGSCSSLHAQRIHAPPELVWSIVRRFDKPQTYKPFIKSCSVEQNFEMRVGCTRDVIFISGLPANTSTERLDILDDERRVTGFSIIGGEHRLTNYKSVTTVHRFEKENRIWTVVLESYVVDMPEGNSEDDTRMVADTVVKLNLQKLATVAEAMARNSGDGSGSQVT

6X His-PYR1 K170W = target: T6, 6X His-PYR1 K170W
T6 chain: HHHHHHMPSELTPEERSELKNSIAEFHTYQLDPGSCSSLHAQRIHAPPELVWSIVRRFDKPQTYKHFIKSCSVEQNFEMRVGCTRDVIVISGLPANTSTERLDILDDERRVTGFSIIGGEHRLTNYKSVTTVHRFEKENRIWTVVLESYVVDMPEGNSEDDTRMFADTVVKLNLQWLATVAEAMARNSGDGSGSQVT

[3] = target: T7, PYR1^CA4C (H60P, A89W, M158I, F159V), 6xHis fusion
T7 chain: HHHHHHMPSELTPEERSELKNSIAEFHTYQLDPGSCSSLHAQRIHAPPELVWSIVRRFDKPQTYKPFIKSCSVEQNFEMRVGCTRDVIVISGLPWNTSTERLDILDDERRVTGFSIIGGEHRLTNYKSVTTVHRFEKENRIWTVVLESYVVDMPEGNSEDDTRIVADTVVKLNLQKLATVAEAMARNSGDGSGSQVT

6X His-PYR1 T162F = target: T8, 6X His-PYR1 T162F
T8 chain: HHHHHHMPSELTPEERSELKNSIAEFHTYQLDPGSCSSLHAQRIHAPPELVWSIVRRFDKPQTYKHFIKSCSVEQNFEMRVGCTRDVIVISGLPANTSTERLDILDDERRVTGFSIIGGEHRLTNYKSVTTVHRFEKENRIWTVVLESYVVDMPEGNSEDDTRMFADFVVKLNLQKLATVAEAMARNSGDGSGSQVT

6x-His-PYL10, wild type = target: T9, 6x-His-PYL10, wild type
T9 chain: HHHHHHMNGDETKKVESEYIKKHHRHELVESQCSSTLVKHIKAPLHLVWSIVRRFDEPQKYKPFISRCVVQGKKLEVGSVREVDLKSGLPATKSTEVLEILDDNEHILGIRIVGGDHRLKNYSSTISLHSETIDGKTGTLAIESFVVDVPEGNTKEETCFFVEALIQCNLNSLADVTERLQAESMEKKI

[4] = target: T10, PYL2^CA4C (H65P, A93W, M164I, F165V), 6xHis fusion
T10 chain: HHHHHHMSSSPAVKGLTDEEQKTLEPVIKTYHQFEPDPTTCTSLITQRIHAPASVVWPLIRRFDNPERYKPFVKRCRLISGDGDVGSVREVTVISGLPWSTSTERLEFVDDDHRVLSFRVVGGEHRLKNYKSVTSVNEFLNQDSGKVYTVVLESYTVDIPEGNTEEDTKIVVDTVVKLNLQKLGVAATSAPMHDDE

[5] = target: T11, PYR1^CA4B (V83F, M158I, F159V, K170W), 6xHis fusion
T11 chain: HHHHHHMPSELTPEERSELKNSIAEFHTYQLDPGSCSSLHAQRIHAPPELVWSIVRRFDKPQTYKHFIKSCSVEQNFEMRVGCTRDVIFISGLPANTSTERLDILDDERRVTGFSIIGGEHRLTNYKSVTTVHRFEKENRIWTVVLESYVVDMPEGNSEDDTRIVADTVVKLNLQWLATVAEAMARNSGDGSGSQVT

6X His-PYR1 M158I = target: T12, 6X His-PYR1 M158I
T12 chain: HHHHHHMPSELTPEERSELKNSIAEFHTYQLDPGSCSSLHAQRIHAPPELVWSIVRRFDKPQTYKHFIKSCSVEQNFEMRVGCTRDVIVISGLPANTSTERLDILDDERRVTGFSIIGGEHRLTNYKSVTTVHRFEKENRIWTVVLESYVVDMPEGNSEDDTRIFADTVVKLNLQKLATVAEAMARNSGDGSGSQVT

6X His-PYR1 A89W = target: T13, 6X His-PYR1 A89W
T13 chain: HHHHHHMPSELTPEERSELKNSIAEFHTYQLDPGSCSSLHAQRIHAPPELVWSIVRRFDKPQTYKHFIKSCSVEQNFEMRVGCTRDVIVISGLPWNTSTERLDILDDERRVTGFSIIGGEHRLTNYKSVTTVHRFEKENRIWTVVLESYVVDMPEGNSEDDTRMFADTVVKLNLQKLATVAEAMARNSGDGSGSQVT

[6] = target: T14, PYR1^CA4 (H60P, V83F, F159V, M158I), 6xHis fusion
T14 chain: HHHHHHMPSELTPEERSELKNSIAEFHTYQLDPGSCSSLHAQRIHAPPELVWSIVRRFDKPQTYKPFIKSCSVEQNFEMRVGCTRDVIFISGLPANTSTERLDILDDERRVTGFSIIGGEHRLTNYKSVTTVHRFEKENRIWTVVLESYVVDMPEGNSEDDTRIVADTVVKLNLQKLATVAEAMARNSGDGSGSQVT

6X His-PYR1 I84Q = target: T15, 6X His-PYR1 I84Q
T15 chain: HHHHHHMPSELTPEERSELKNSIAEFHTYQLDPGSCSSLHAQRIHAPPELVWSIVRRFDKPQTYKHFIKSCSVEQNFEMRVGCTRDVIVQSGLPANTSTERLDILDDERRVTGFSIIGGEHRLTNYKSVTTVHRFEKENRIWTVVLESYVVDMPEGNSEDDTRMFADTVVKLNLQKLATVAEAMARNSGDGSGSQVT

6X His-PYR1 F159V = target: T16, 6X His-PYR1 F159V
T16 chain: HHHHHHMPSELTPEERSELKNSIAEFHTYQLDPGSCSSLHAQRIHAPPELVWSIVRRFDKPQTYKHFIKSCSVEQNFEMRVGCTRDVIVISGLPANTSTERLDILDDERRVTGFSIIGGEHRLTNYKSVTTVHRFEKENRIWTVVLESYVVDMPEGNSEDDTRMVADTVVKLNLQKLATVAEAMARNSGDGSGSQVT

B1: GST-HAB1 (protein)
chain: SPVEITQLKNVTDAADLLSDSENQSFCNGGTECTMEDVSELEEVGEQDLLKTLSDTRSGSSNVFDEDDVLSVVEDNSAVISEGLLVVDAGSELSLSNTAMEIDNGRVLATAIIVGESSIEQVPTAEVLIAGVNQDTNTSEVVIRLPDENSNHLVKGRSVYELDCIPLWGTVSIQGNRSEMEDAFAVSPHFLKLPIKMLMGDHEGMSPSLTHLTGHFFGVYDGHGGHKVADYCRDRLHFALAEEIERIKDELCKRNTGEGRQVQWDKVFTSCFLTVDGEIEGKIGRAVVGSSDKVLEAVASETVGSTAVVALVCSSHIVVSNCGDSRAVLFRGKEAMPLSVDHKPDREDEYARIENAGGKVIQWQGARVFGVLAMSRSIGDRYLKPYVIPEPEVTFMPRSREDECLILASDGLWDVMNNQEVCEIARRRILMWHKKNGAPPLAERGKGIDPACQAAADYLSMLALQKGSKDNISIIVIDLKAQRKFKTRT
B1 was tested, and the “HAB1 phosphatase (PP2C) activity, % of control, pNPP hydrolysis, in the absence of ABA” value (shortened to “HAB1 phosphatase (PP2C) activity, %”) (6X His-PYR1 V83F) was “each of the activating mutants increased basal receptor activity in comparison to wild-type PYR1”, the “PP2C activity, % of control, pNPP hydrolysis, with 0 or 10 µM ABA” value (6x-His-PYL6, wild type) was “PYL6 and PYL10, which have high basal activities ..., are not full CA receptors” and the “HAB1 phosphatase (PP2C) activity, %” value (6X His-PYR1 H60P) was “each of the activating mutants increased basal receptor activity in comparison to wild-type PYR1”. For the same protein, the “PP2C activity, % of control, pNPP hydrolysis, in the absence of ABA” value (shortened to “PP2C activity, % of control … of ABA”) [1] was “the mutant proteins were highly activated in the absence of ABA in comparison to wild-type PYL2 or PYL9”, the “PP2C activity, % of control … of ABA” value [2] was “both the triple and quadruple mutants dramatically increased basal PYR1 activity relative to wild-type PYR1” and the “HAB1 phosphatase (PP2C) activity, %” value (6X His-PYR1 K170W) was “each of the activating mutants increased basal receptor activity in comparison to wild-type PYR1”. The “PP2C activity, % of control … of ABA” value [3] was “both the PYR1^CA4B and PYR1^CAc mutants dramatically increased basal PYR1 activity relative to wild-type PYR1”, the “HAB1 phosphatase (PP2C) activity, %” value (6X His-PYR1 T162F) was “each of the activating mutants increased basal receptor activity in comparison to wild-type PYR1” and the “PP2C activity, % of control, pNPP hydrolysis, with 0 or 10 µM ABA” value (6x-His-PYL10, wild type) was “PYL6 and PYL10, which have high basal activities ..., are not full CA receptors”. For the same protein, the “PP2C activity, % of control … of ABA” value [4] was “the mutant proteins were highly activated in the absence of ABA in comparison to wild-type PYL2 or PYL9”, the “PP2C activity, % of control … of ABA” value [5] was “both the PYR1^CA4B and PYR1^CAc mutants dramatically increased basal PYR1 activity relative to wild-type PYR1” and the “HAB1 phosphatase (PP2C) activity, %” value (6X His-PYR1 M158I) was “each of the activating mutants increased basal receptor activity in comparison to wild-type PYR1”. The “HAB1 phosphatase (PP2C) activity, %” value (6X His-PYR1 A89W) was “each of the activating mutants increased basal receptor activity in comparison to wild-type PYR1”, the “PP2C activity, % of control … of ABA” value [6] was “both the triple and quadruple mutants dramatically increased basal PYR1 activity relative to wild-type PYR1” and the “HAB1 phosphatase (PP2C) activity, %” value (6X His-PYR1 I84Q) was “each of the activating mutants increased basal receptor activity in comparison to wild-type PYR1”. The “HAB1 phosphatase (PP2C) activity, %” value (6X His-PYR1 F159V) was “each of the activating mutants increased basal receptor activity in comparison to wild-type PYR1”.
